Results reported in patent publication US20190183138.

Key:
bovine β-casein = biological target: T1, bovine β-casein (UniProt P02666)
T1 sequence: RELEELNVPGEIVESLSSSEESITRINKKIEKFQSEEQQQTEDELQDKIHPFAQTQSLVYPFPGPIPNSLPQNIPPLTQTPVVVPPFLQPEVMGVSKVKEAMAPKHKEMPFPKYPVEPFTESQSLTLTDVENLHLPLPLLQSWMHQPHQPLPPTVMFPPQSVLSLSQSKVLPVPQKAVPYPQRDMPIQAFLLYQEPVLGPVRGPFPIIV

bovine κ-casein = bovine κ-casein (UniProt P02668)
Chain of bovine κ-casein (P02668 22-190): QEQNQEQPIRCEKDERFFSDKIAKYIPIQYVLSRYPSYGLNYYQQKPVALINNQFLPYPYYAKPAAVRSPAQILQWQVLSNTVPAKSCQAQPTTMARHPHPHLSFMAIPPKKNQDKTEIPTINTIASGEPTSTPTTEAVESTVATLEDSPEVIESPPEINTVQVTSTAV

Row | Substance | hydrolysis of isolated casein as a function of time (SDS-PAGE) (bovine α-casein) | hydrolysis of isolated casein as a function of time (SDS-PAGE) (bovine β-casein) | Km (bovine κ-casein) [mg/mL] | hydrolysis of isolated casein as a function of time (SDS-PAGE) (bovine κ-casein) | kcat (min) (bovine κ-casein) [min⁻¹] | kcat./Km [mL/(mg · min)] (mL/(mg · min)) (bovine κ-casein)
1 | Cynanchum otophyllum Schneid. protease QA (identified as asclepain of Asclepias Linn.) | α-casein was only partially hydrolyzed | β-Casein and κ-casein were completely hydrolyzed after 4 h of incubation | 0.397 ± 0.002 | hydrolysis by QA required almost 4 h | 99.7 | 251 ± 6.11
2 | Cynanchum otophyllum Schneid. protease QC (identified as cysteine protease B of Calotropis R. Br.) | α-casein was only partially hydrolyzed | The QC also exhibited a higher rate of hydrolysis than QA for β-casein and κ-casein | 1.708 ± 0.014 | Most of the κ-casein was hydrolyzed by QC after 30 min of incubation | 83.6 | 49 ± 1.93
